Source: paper PMC8406286, “A Recently Assembled Degradation Pathway for 2,3-Dichloronitrobenzene in Diaphorobacter sp. Strain JS3051” (mBio, 2021)

Columns and labels:
Conditions in all cases: 50 mM Tris-HCl pH 8.0, 25°C
[1] = substrate: Oc1cccc(Cl)c1O; assay: purified protein
[2] = substrate: Oc1ccc(Cl)cc1O; assay: purified protein
[3] = substrate: Oc1ccc(Cl)c(Cl)c1O; assay: purified protein
[4] = substrate: Cc1ccc(O)c(O)c1; assay: spectrophotometric ring-cleavage assay, A260; type: biochemical, Diaphorobacter sp. JS3051
[5] = substrate: Oc1ccccc1O; assay: spectrophotometric ring-cleavage assay, A260; type: biochemical, Diaphorobacter sp. JS3051
[6] = substrate: Cc1cccc(O)c1O; assay: spectrophotometric ring-cleavage assay, A260; type: biochemical, Diaphorobacter sp. JS3051

B1: H6-DccA (Diaphorobacter sp. JS3051) (protein)
chain: MDKRVAEVAGAIVEAVRKILLDKRVTEAEYRAGVDYLTEVAQTRETAVLLDAFLNSTIIEGKAQRSRTSAPGMQGPYFLEGAPVVEGVLKTYDTDDHKPLIIRGTVRSDTGELLAGAVIDVWHSTPDGLYSGIHDNIPMDYYRGKLVTDSQGNFRVRTTMPVPYQIPYEGPTGRLLGHLGSHTWRPAHVHFKVRKDGFEPLTTQYYFEGGKWVDDDCCHGVTPDLITPETIEDGVRVMTLDFVIEREQAEQRKSATETVA
notes: full-length gene in pET-28a(+) (NdeI/BamHI), N-terminal 6xHis tag, purified from E. coli BL21(DE3)
[1]
  Km: 2.58 ± 0.38 µM
  Vmax: 0.42 µM/min
  kcat: 0.35 s⁻¹
  kcat/Km: 135000 M⁻¹ s⁻¹
[2]
  Km: 0.73 ± 0.06 µM
  Vmax: 0.78 µM/min
  kcat: 0.653 s⁻¹
  kcat/Km: 893000 M⁻¹ s⁻¹
[3]
  Km: 0.48 ± 0.10 µM
  Vmax: 0.43 µM/min
  kcat: 0.355 s⁻¹
  kcat/Km: 737000 M⁻¹ s⁻¹
[4]
  Km: 10.40 ± 1.35 µM
  Vmax: 4.63 µM/min
  kcat: 3.86 s⁻¹
  kcat/Km: 372000 M⁻¹ s⁻¹
[5]
  Km: 9.06 ± 0.88 µM
  Vmax: 0.44 µM/min
  kcat: 0.363 s⁻¹
  kcat/Km: 40000 M⁻¹ s⁻¹
[6]
  Km: 12.85 ± 1.52 µM
  Vmax: 0.63 µM/min
  kcat: 0.525 s⁻¹
  kcat/Km: 41700 M⁻¹ s⁻¹
